Reference: US20240043859A1, “HERBICIDE-RESISTANT PROTEIN, AND GENE AND USE THEREOF” (QINGDAO KINGAGROOT CHEMICAL COMPOUND CO., LTD., priority 2020, published 2024)
“Also recorded” adds a separate entry of the source.

What was measured:
Format in all cases: in vivo
soybean William82 = assay: Spray testing of transgenic soybean T1 seedlings; settings: 2,4-D 4.48 kg/ha foliage spray, 10 days after spraying
Text: 1. Vector construction: the pQY2330 vector (see FIG. 8-1) was used as the overexpression vector, containing a Bar resistance gene that can be used as a selection marker for glufosinate. The AAD-like gene, QYD42, SEQ ID NO. 83, was linked to the Xho I restriction site by seamless cloning to construct the transgenic expression vector pQY2330, of which the expression cassette consisted of a double CaMV35S promoter, the AAD-like gene QYD42 and a […] Nos terminator.
2. Genetic transformation of soybeans: Soybean transformation was carried out using the Agrobacterium-mediated cotyledon nodes transformation method (Pareddy D, Chennareddy S, Anthony G, et al. Improved soybean transformation for efficient and high throughput transgenic production[J]. Transgenic Research, 2020, 29(968)). A monoclone of the Agrobacterium (EHA105) comprising the overexpression vector pQY2330 was inoculated into 5 ml YEP liquid medium (containing 25 mg/L Rifampicin and 50 mg/L Kanamycin) and shaking-cultured at 220 rmp/min, 28° C. for 8 hours. And then 0.2-0.3 ml bacteria solution was transferred to 200 ml YEP liquid medium (containing 25 mg/L Rifampicin and 50 mg/L Kanamycin) and shaking-cultured at 220 rmp/min, 28° C. overnight until the bacteria reached the exponential growth stage, then centrifuged at 4000 rmp/min for 20 min to collect the cells into a 50 ml centrifuge tube (sterilized). […]

Arabidopsis thaliana [1] = assay: Herbicide resistance of transgenic Arabidopsis thaliana seedlings on plate medium (root growth); settings: Arabidopsis overexpressing the gene
Outline: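 After 3 days of cold treatment at 4 °C, seeds were cultured at 22 °C under a 16 h/8 h light cycle on MS herbicide medium (0.3 μM 2,4-D in the screen). Root growth was scored against wild-type seedlings at one week. The material was T2 AAD-overexpressing lines (AtUbi10 promoter, MAS terminator, hygromycin marker), two events each, tested with 2,4-D, 2,4-DB sodium and MCPA.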

Arabidopsis thaliana [2] = assay: as above; settings: plate medium with 2,4-D (0.3 μmol)

B1: QYD42: AAD-like enzyme, SEQ ID NO. 83; expressed from vectors pQY2309 (Arabidopsis), pQY2329 (maize), pQY2330 (soybean) (protein)
chain: MQITPIADATFGATVTGLRLATLDDAGFARLHAAWLQHALLVFPGQFLTNAEQIGFAKRFGPIERIGGGDIVAISNVKADGTVRQHSPAEWDDMMKVIVGNMAWHADSTYMPVMAQGAVFSAEVVPPTGGRTCFADMRAAYDALDDATRALVHQRSARHSLVYSQSKLGHVQQAGSAYVGYGMDTTATPLRPLVKRHPETGRLSLLIGRHAHAIPGLEEAESERFLEDLVAWACQPPRVVAHHWTAGDVVLWDNRCLLHRAEPWDFTLPRVMWHSRLAGHPETEAAPLV
modifications: Synthetic polypeptide, QYD42, D42
Q: With B1 as the molecule, how does the “Resistance of T1 transgenic soybean to 2,4-D (spray)” value (soybean William82) read?
A: The value was “no phytotoxicity; also recorded: remains normal”.

Q: What about the “Resistance of transgenic Arabidopsis thaliana: 2,4-D” value (Arabidopsis thaliana [1]) of the same molecule?
A: Its value is “Yes”.

Q: What about the “Resistance of transgenic Arabidopsis thaliana: MCPA” value (Arabidopsis thaliana [1]) of the same molecule?
A: The value was “Yes”.

Q: What about the “2,4-D resistance of T1 generation transgenic seedlings (seminal root growth)” value (Arabidopsis thaliana [2]) of the same molecule?
A: The value was “showing tolerance to 2,4-D”.
